The text below walks through data of publication PMC8563757, “NudCL2 is an autophagy receptor that mediates selective autophagic degradation of CP110 at mother centrioles to promote ciliogenesis” (Cell Research, 2021).

The assay has as its target T1, His-CP110 (mouse, UniProt Q7TSH4 1-1004).
T1 construct: Full-length mouse CP110 cloned by RT-PCR into pFastBac-HT A (His-tag vector); also called purified His-CP110; source: insect Sf9 cells, Bac-to-Bac baculovirus expression system, purified
T1 sequence (looked up): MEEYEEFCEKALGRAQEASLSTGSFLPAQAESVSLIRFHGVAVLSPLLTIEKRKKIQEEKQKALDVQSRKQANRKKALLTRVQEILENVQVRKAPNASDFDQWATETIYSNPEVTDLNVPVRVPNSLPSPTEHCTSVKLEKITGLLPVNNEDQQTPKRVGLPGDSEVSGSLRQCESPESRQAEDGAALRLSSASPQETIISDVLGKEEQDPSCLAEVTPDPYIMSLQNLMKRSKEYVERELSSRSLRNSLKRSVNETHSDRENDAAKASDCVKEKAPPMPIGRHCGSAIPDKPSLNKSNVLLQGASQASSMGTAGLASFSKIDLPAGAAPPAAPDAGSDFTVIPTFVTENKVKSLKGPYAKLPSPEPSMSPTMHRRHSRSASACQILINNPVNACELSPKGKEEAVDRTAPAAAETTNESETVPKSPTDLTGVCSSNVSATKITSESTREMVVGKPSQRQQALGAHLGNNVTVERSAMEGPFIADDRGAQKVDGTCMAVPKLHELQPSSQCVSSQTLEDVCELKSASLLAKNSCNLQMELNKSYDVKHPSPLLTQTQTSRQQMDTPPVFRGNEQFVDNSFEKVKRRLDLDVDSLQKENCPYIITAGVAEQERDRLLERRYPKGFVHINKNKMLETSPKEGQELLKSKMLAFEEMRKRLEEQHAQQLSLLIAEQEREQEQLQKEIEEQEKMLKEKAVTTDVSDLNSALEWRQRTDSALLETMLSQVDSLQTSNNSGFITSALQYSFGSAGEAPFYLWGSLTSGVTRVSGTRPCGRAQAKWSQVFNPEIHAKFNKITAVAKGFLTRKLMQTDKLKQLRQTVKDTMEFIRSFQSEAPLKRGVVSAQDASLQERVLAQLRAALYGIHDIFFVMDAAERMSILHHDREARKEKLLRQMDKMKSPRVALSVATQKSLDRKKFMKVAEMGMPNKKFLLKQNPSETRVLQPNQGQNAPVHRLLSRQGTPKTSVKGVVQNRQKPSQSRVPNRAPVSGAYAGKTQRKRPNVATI
As to the kind of experiment: pull-down; GST pull-down of two purified proteins, incubated in PBS at 4 °C for 4 h, glutathione-agarose beads 2 h, western blotting. The settings on record: both partners purified.

B1: GST-NudCL2 (natural protein, mouse, UniProt Q9CQ48 1-157, looked up)
chain: MSAPFEERSGVVPCGTPWGQWYQTLEEVFIEVQVPPGTRAQDIQCGLQSRHVALAVGGREILKGKLFDSTIADEGTWTLEDRKMVRIVLTKTKRDAANCWTSLLESEYAADPWVQDQMQRKLTLERFQKENPGFDFSGAEISGNYTKGGPDFSNLEK
notes: Full-length mouse NudCL2 amplified from total cDNA by RT-PCR and cloned into pGEX5X-1; also called purified GST-NudCL2; source: Escherichia coli BL21, purified
Turning to B1, the binding result was “binds”.
